According to patent US20190112392A1:

Target: soluble recombinant cynomolgus TCR alpha/beta-zipper protein (cynomolgus/rhesus monkey)
Experiment: ELISA, 2 µg/mL coated soluble recombinant cynomolgus TCR α/β-zipper protein, OD 450 nm

soluble recombinant cynomolgus TCR alpha/beta-zipper protein (cynomolgus/rhesus monkey), sequence (TCR alpha, as listed by the source, chain 1 of 2): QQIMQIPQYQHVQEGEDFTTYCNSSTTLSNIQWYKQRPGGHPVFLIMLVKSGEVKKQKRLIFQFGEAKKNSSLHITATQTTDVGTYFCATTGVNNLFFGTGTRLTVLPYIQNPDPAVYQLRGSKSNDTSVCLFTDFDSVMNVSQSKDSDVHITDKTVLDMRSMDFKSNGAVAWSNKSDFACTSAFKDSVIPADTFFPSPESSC
soluble recombinant cynomolgus TCR alpha/beta-zipper protein (cynomolgus/rhesus monkey), sequence (TCR beta, as listed by the source, chain 2 of 2): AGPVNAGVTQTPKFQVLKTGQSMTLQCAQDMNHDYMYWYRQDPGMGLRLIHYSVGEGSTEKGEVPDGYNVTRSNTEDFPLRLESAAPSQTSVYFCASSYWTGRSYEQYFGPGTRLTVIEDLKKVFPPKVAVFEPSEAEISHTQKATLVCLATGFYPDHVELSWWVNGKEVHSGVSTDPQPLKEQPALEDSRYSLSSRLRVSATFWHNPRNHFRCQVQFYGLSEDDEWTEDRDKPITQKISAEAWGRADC

Substance “anti-non-human primate/Rat TCRα/β antibody clone R73” has an EC50 (read off the curve) of 0.1 nM.
